# B1: Twister Ribozyme (parent)
# chain: AACACUGCCAAUGCCGGUCCCAAGCCCGGAUAAAAGUGGAGGGGGCGG
# Variants of: B1
# Assay: self-cleavage, relative activity (ratio to wild type); higher = more cleavage; co-transcriptional
row,Variant,self-cleavage
1,AACACUGCCAAUGUCGGUCCCAAGCCCGGAUAAAAGUGGAGUGGGCGG,0.486
2,AACACUGCCAAUGUCGGUCCCAAGCCCGGAUAAAAGUGGAGGAGGCGG,0.369
3,AACACUGCCAAUGUCGGUCCCAAGCCCGGAUAAAAGUGGAGGCGGCGG,0.227
4,AACACUGCCAAUGUCGGUCCCAAGCCCGGAUAAAAGUGGAGGUGGCGG,0.526
5,AACACUGCCAAUGUCGGUCCCAAGCCCGGAUAAAAGUGGAGGGAGCGG,1.08
6,AACACUGCCAAUGUCGGUCCCAAGCCCGGAUAAAAGUGGAGGGCGCGG,0.983
7,AACACUGCCAAUGUCGGUCCCAAGCCCGGAUAAAAGUGGAGGGUGCGG,1.15
8,AACACUGCCAAUGUCGGUCCCAAGCCCGGAUAAAAGUGGAGGGGGCAG,0.947
9,AACACUGCCAAUGUCGGUCCCAAGCCCGGAUAAAAGUGGAGGGGGCGA,1.1
10,AACACUGCCAAUGUCGGUCCCAAGCCCGGAUAAAAGUGGAGGGGGCGC,1.26
11,AACACUGCCAAUGUCGGACCCAAGCCCGGAUAAAAGUGGAGGGGGCGG,0.635
12,AACACUGCCAAUGUCGGCCCCAAGCCCGGAUAAAAGUGGAGGGGGCGG,0.594
13,AACACUGCCAAUGUCGGUCCCAAGCCCGGACAAAAGUGGAGGGGGCGG,1.22
14,AACACUGCCAAUGUCGGUCCCAAGCCCGGAUAAAAGAGGAGGGGGCGG,0.83
15,AACACUGCCAAUGUCGGUCCCAAGCCCGGAUAAAAGGGGAGGGGGCGG,0.845
16,AACACUGCCAAUGCAGGUCCCCAGCCCGGAUAAAAGUGGAGGGGGCGG,0.533
17,AACACUGCCAAUGCAGGUCCCAGGCCCGGAUAAAAGUGGAGGGGGCGG,0.141
18,AACACUGCCAAUGCAGGUCCCAUGCCCGGAUAAAAGUGGAGGGGGCGG,0.0658
19,AACACUGCCAAUGCAGGUCCCAAGCCCGGGUAAAAGUGGAGGGGGCGG,0.492
20,AACACUGCCAAUGCAGGUCCCAAGCCCGGAUCAAAGUGGAGGGGGCGG,0.529
21,AACACUGCCAAUGCAGGUCCCAAGCCCGGAUGAAAGUGGAGGGGGCGG,0.583
22,AACACUGCCAAUGCAGGUCCCAAGCCCGGAUUAAAGUGGAGGGGGCGG,0.667
23,AACACUGCCAAUGCAGGUCCCAAGCCCGGAUAGAAGUGGAGGGGGCGG,0.578
24,AACACUGCCAAUGCAGGUCCCAAGCCCGGAUAUAAGUGGAGGGGGCGG,0.541
25,AACACUGCCAAUGCAGGUCCCAAGCCCGGAUAACAGUGGAGGGGGCGG,0.156
26,AACACUGCCAAUGCAGGUCCCAAGCCCGGAUAAGAGUGGAGGGGGCGG,0.422
27,AACACUGCCAAUGCAGGUCCCAAGCCCGGAUAAACGUGGAGGGGGCGG,0.546

row,Variant,self-cleavage
1,AACACUGCCAAUGCAGGUCCCAAGCCCGGAUAAAGGUGGAGGGGGCGG,0.285
2,AACACUGCCAAUGCAGGUCCCAAGCCCGGAUAAAUGUGGAGGGGGCGG,0.774
3,AACACUGCCAAUGCAGGUCCCAAGCCCGGAUAAAAGUGGUGGGGGCGG,0.116
4,AACACUGCCAAUGCAGGUCGCAAGCCCGGAUAAAAGUGGAGGGGGCGG,0.0632
5,AACACUGCCAAUGCAGGUCCGAAGCCCGGAUAAAAGUGGAGGGGGCGG,0.0777
6,AACACUGCCAAUGCAGGUCCCAAGACCGGAUAAAAGUGGAGGGGGCGG,0.0919
7,AACACUGCCAAUGCAGGUCCCAAGUCCGGAUAAAAGUGGAGGGGGCGG,0.436
8,AACACUGCCAAUGCAGGUCCCAAGCACGGAUAAAAGUGGAGGGGGCGG,0.0686
9,AACACUGCCAAUGCAGGUCCCAAGCGCGGAUAAAAGUGGAGGGGGCGG,0.108
10,AACACUGCCAAUGCAGGUCCCAAGCCGGGAUAAAAGUGGAGGGGGCGG,0.0735
11,AACACUGCCAAUGCAGGUCCCAAGCCCGGAUAAAAGUGGAGGGGGAGG,0.565
12,AACACUGCCAAUGCAAGUCCCAAGCCCGGAUAAAAGUGGAGGGGGCGG,0.351
13,AACACUGCCAAUGCACGUCCCAAGCCCGGAUAAAAGUGGAGGGGGCGG,0.264
14,AACACUGCCAAUGCAUGUCCCAAGCCCGGAUAAAAGUGGAGGGGGCGG,0.34
15,AACACUGCCAAUGCAGCUCCCAAGCCCGGAUAAAAGUGGAGGGGGCGG,0.0439
16,AACACUGCCAAUGCAGGUCCCAAACCCGGAUAAAAGUGGAGGGGGCGG,0.0695
17,AACACUGCCAAUGCAGGUCCCAACCCCGGAUAAAAGUGGAGGGGGCGG,0.0841
18,AACACUGCCAAUGCAGGUCCCAAGCCCAGAUAAAAGUGGAGGGGGCGG,0.865
19,AACACUGCCAAUGCAGGUCCCAAGCCCGAAUAAAAGUGGAGGGGGCGG,0.793
20,AACACUGCCAAUGCAGGUCCCAAGCCCGGAUAAAAAUGGAGGGGGCGG,0.165
21,AACACUGCCAAUGCAGGUCCCAAGCCCGGAUAAAAGUAGAGGGGGCGG,0.4
22,AACACUGCCAAUGCAGGUCCCAAGCCCGGAUAAAAGUCGAGGGGGCGG,0.452
23,AACACUGCCAAUGCAGGUCCCAAGCCCGGAUAAAAGUGAAGGGGGCGG,0.156
24,AACACUGCCAAUGCAGGUCCCAAGCCCGGAUAAAAGUGGAAGGGGCGG,0.189
25,AACACUGCCAAUGCAGGUCCCAAGCCCGGAUAAAAGUGGACGGGGCGG,0.16
26,AACACUGCCAAUGCAGGUCCCAAGCCCGGAUAAAAGUGGAGCGGGCGG,0.182
27,AACACUGCCAAUGCAGGUCCCAAGCCCGGAUAAAAGUGGAGUGGGCGG,0.14

# From the RNAGym collection of RNA variant scans (doi:10.7554/elife.80360)
